Reference: publication PMC9728202, “Molecular and Enzymatic Features of Homoserine Dehydrogenase from Bacillus subtilis” (Journal of Microbiology and Biotechnology, 2020)

How the values were obtained:
purified protein [1] = substrate: NC(=O)c1ccc[n+]([C@@H]2O[C@H](COP(=O)(O)OP(=O)(O)OC[C@H]3O[C@@H](n4cnc5c(N)ncnc54)[C@H](OP(=O)(O)O)[C@@H]3O)[C@@H](O)[C@H]2O)c1; test: purified protein; format: biochemical, Bacillus subtilis; settings: oxidation, 100 mM L-homoserine, pH 9.0, 400 mM NaCl, 25°C, apparent, varied: cofactor
purified protein [2] = substrate: N[C@@H](CCO)C(=O)O; test: purified protein; format: biochemical, Bacillus subtilis; settings: oxidation, 2 mM NADP+, pH 9.0, 400 mM NaCl, 25°C, apparent
[3] = target: the molecule itself; test: SEC; Superdex-200 10/300 GL, 20 mM Tris-HCl pH 8.0, 0.1 mM TCEP, 400 mM NaCl, 0.5 mL/min; mass from a standard curve of standard proteins

B1: Homoserine dehydrogenase from Bacillus subtilis (enzyme, Bacillus subtilis strain 168, UniProt P19582 1-433, looked up)
chain: MKAIRVGLLGLGTVGSGVVKIIQDHQDKLMHQVGCPVTIKKVLVKDLEKKREVDLPKEVLTTEVYDVIDDPDVDVVIEVIGGVEQTKQYLVDALRSKKHVVTANKDLMAVYGSELLAEAKENGCDIYFEASVAGGIPILRTLEEGLSSDRITKMMGIVNGTTNFILTKMIKEKSPYEEVLKEAQDLGFAEADPTSDVEGLDAARKMAILARLGFSMNVDLEDVKVKGISQITDEDISFSKRLGYTMKLIGIAQRDGSKIEVSVQPTLLPDHHPLSAVHNEFNAVYVYGEAVGETMFYGPGAGSMPTATSVVSDLVAVMKNMRLGVTGNSFVGPQYEKNMKSPSDIYAQQFLRIHVKDEVGSFSKITSVFSERGVSFEKILQLPIKGHDELAEIVIVTHHTSEADFSDILQNLNDLEVVQEVKSTYRVEGNGWS
notes: Homoserine dehydrogenase (gene hom) of Bacillus subtilis strain 168, 433 amino acid residues; Calculated mass of the monomer printed as 48.3 kDa; Surmised: cloning through XhoI into pET26b adds Leu-Glu before the His6 tag; no removal of the tag is told; also called BsHSD; HSD; source: E. coli Rosetta2 (DE3), purified (HisTrapFF, HiPrep 26/10 Desalting, Superdex-200)
Km (purified protein [1]): 0.39 ± 0.05 mM | Vmax (purified protein [1]): 2.79 µmol/min/mg | kcat (purified protein [1]): 1.1 ± 0.04 s⁻¹ | kcat/Km (purified protein [1]): 2860 ± 910 M⁻¹ s⁻¹ | Km (purified protein [2]): 35.08 ± 2.91 mM | Vmax (purified protein [2]): 2.72 µmol/min/mg | kcat (purified protein [2]): 1.07 ± 0.02 s⁻¹ | kcat/Km (purified protein [2]): 30 ± 10 M⁻¹ s⁻¹ | stoichiometry N [3]: 4
